Source: PMC4617317

What was measured:
[1] = tested on: H-NS (Vibrio cholerae C7258?); test: EMSA
[2] = tested on: VpsT (Vibrio cholerae C7258?); test: EMSA

Substance	Kd [1]	Kd [2]
vpsL promoter -262 to -185	204 nM	35.4 nM
vpsA promoter -223 to -139	138 nM	42.6 nM
